The source of these data is US20150273076A1, “SP1 POLYPEPTIDES, MODIFIED SP1 POLYPEPTIDES AND USES THEREOF” (Fulcrum SP Ltd., priority 2006, published 2015).

Where a chain is given by its changes, count along the chain named. Names may count otherwise.

To fix the notation:
B1: R23A: SP1 mutant R23A, SEQ ID NO:12 (protein)
chain: MATRTPKLVKHTLLTRFKDEITAEQIDNYINDYTNLLDLIPSMKSFNWGTDLGMESAELNRGYTHAFESTFESKSGLQEYLDSAALAAFAEGFLPTLSQRLVIDYFLY
modifications: Sp1 mutant variant R23A mutated
B2: D38A: SP1 mutant D38A, SEQ ID NO:17 (protein)
chain: B1 chain with A23R, D38A
modifications: Sp1 mutant variant D38A mutated
B3: N31A: SP1 mutant N31A, SEQ ID NO:15 (protein)
chain: B1 chain with A23R, N31A
modifications: Sp1 mutant variant N31A mutated
B4: T34A: SP1 mutant T34A, SEQ ID NO:16 (protein)
chain: B1 chain with A23R, T34A
modifications: Sp1 mutant variant T34A mutated
B5: I30A: SP1 mutant I30A, SEQ ID NO:14 (protein)
chain: B1 chain with A23R, I30A
modifications: Sp1 mutant variant I30A mutated
B6: E68A: SP1 mutant E68A, SEQ ID NO:19 (protein)
chain: B1 chain with A23R, E68A
modifications: Sp1 mutant variant E68A mutated
B7: Y108A: SP1 mutant Y108A, SEQ ID NO:24 (protein)
chain: B1 chain with A23R, Y108A
modifications: Sp1 mutant variant Y108A mutated
B8: 6H2: six histidine N-terminal tagged SP1, SEQ ID NO:7 (protein)
chain: MHHHHHHATRTPKLVKHTLLTRFKDEITREQIDNYINDYTNLLDLIPSMKSFNWGTDLGMESAELNRGYTHAFESTFESKSGLQEYLDSAALAAFAEGFLPTLSQRLVIDYFLY
B9: F106A 6XH2: SP1 mutant F106A 6XH2, SEQ ID NO:23 (protein)
chain: B8 chain with F112A
modifications: Sp1 mutant variant 6Xhis inserted into position 2 and F106A mutated
B10: D38A S75A 6XH2: SP1 mutant D38A S75A 6XH2, SEQ ID NO:29 (protein)
chain: B8 chain with D38A, D44A, S75A, S81A
modifications: Sp1 mutant variant 6Xhis inserted into position 2, D38A and S75A mutated
B11: N31A T34A 6XH2: SP1 mutant N31A T34A 6XH2, SEQ ID NO:30 (protein)
chain: B8 chain with N37A, T40A
modifications: Sp1 mutant variant 6Xhis inserted into position 2, N31A and T34A mutated
B12: D27A: SP1 mutant D27A, SEQ ID NO:13 (protein)
chain: B1 chain with A23R, D27A
modifications: Sp1 mutant variant D27A mutated
B13: S73A S75A 6XH2: SP1 mutant S73A S75A 6XH2, SEQ ID NO:28 (protein)
chain: B8 chain with S79A, S81A
modifications: Sp1 mutant variant 6Xhis inserted into position 2, S73A and S75A mutated
B14: Δ2-7 Cys2: SP1 variant Δ2-7 Cys2, SEQ ID NO:9 (protein)
chain: MCLVKHTLLTRFKDEITREQIDNYINDYTNLLDLIPSMKSFNWGTDLGMESAELNRGYTHAFESTFESKSGLQEYLDSAALAAFAEGFLPTLSQRLVIDYFLY
modifications: Sp1 mutant variant Cys inserted into position 2 together with a deletion of amino acid 2-7
B15: Δ2-6 L81C: SP1 variant Δ2-6 L81C, external perimeters of the dodecamer ring, SEQ ID NO:22 (protein)
chain: B14 chain with C2K, L76C
modifications: Sp1 mutant variant amino acids 2-6 deleted and L81C mutated
B16: Δ2-6 I40C: SP1 Loop 2 modification Δ2-6 I40C, SEQ ID NO:18 (protein)
chain: B14 chain with C2K, I35C
modifications: Sp1 mutant variant amino acids 2-6 deleted and I40C mutated
B17: Δ2-6 His2: SP1 variant Δ2-6 His2, SEQ ID NO:8 (protein)
chain: MHKLVKHTLLTRFKDEITREQIDNYINDYTNLLDLIPSMKSFNWGTDLGMESAELNRGYTHAFESTFESKSGLQEYLDSAALAAFAEGFLPTLSQRLVIDYFLY
modifications: Sp1 mutant variant His inserted into position 2 together with a deletion of amino acid 2-6
B18: HH2: SP1 N-terminus modification HH2, SEQ ID NO:4 (protein)
chain: MHHATRTPKLVKHTLLTRFKDEITREQIDNYINDYTNLLDLIPSMKSFNWGTDLGMESAELNRGYTHAFESTFESKSGLQEYLDSAALAAFAEGFLPTLSQRLVIDYFLY
modifications: Sp1 mutant variant 2X His inserted into position 2

One data set can be described thus: Protein melting point by DSC. It is filed as physicochemical. Particulars: protein melting point by DSC; in °C (unit assumed). As for the experimental part: Differential scanning calorimetry study of SP1 indicates in a Tm of 107° C. for SP1. […] Further, folding and refolding of inclusion bodies including insoluble SP1, and the heat stability of the unfolded proteins indicate that the intact monomer, as well as the oligomer, is heat resistant (FIG. 5).
For orientation: Differential scanning calorimetry records heat flow against a reference as temperature is scanned.
Regarding B1, the Tm is given as 108.

On to B2, for which the Tm amounted to 113.

Take B3: the Tm turned out to be 110.

As for B4, the Tm is 114.

As to B5, the Tm is reported as 98.

In the case of B6, the Tm amounted to 105.8.

For B7, the Tm was found to be 68.

On to B8, for which the Tm was found to be 109.

As for B9, the Tm worked out at 75.

Turning to B10, the Tm amounted to 112.

As to B11, the Tm was 96.6.

The next data set can be described thus: Heat stability (no precipitation after heat treatment). Particulars: 10 min at 100° C. or 30 min at 85° C.
As for B1, the Heat stability result is recorded as “+”.

As for B2, the Heat stability entry is “+”.

As to B3, the Heat stability result was “+”.

For B4, the Heat stability result is given as “+”.

Take B6: the Heat stability result is given as “+”.

Take B12: the Heat stability entry is given as “+”.

Regarding B13, the Heat stability entry is reported as “+”.

As to B10, the Heat stability entry is reported as “+”.

With B14, the Heat stability result was “+”.

With B15, the Heat stability result is listed as “+”.

With B16, the Heat stability result is given as “+”.

For B17, the Heat stability entry was “+”.

With B18, the Heat stability result is on record as “+”.
